From patent US11292821B2, “Peptides and combination of peptides for use in immunotherapy against lung cancer, including NSCLC, SCLC and other cancers” (Immatics Biotechnologies GmbH, priority 2017, dated 2022)

target: HLA-B*07 (Homo sapiens, UniProt P01889); test: MHC binding assay (UV-ligand exchange, β2m ELISA)
Source text: Candidate peptides for T cell based therapies according to the present invention were further tested for their MHC binding capacity (affinity). The individual peptide-MHC complexes were produced by UV-ligand exchange, where a UV-sensitive peptide is cleaved upon UV-irradiation, and exchanged with the peptide of interest as analyzed. Only peptide candidates that can effectively bind and stabilize the peptide-receptive MHC molecules prevent dissociation of the MHC complexes. To determine the yield of the exchange reaction, an ELISA was performed based on the detection of the light chain (β2m) of stabilized MHC complexes. The assay was performed as generally described in Rodenko et al. (Rodenko et al., 2006).
96 well MAXISorp plates (NUNC) were coated over night with 2 ug/ml streptavidin in PBS at room temperature, washed 4× and blocked for 1 h at 37° C. in 2% BSA containing blocking buffer. […] Peptide-MHC monomers of the UV-exchange reaction were diluted 100-fold in blocking buffer. Samples were incubated for 1 h at 37° C., washed four times, incubated with 2 ug/ml HRP conjugated anti-β2m for 1h at 37° C., washed again and detected with TMB solution that is stopped with […]. Absorption was measured at 450 nm. Candidate peptides that show a high exchange yield (preferably higher than 50%, most preferred higher than 75%) are generally preferred for a generation and production of antibodies or fragments thereof, and/or T cell receptors or fragments thereof, as they show sufficient avidity to the MHC molecules and prevent dissociation of the MHC complexes.

How did the “Peptide exchange (peptide exchange yield, MHC class I binding score)” value (shortened to “Peptide exchange”) turn out when “275 (APHPPLSVV; listed as Homo sapiens) [compound 275]” was run?
The value was ““+++” (>50 = +++)”.

For “276 (LPRAGGAFL; listed as Homo sapiens) [compound 276]”, which “Peptide exchange” value is on record?
Its value is ““+++” (>50 = +++)”.

With “278 (HPMIDINGIIVF; listed as Homo sapiens) [compound 278]” as the substance, how does the “Peptide exchange” value read?
The value was ““++” (>20% = ++)”.

“279 (SPARASPAL; listed as Homo sapiens) [compound 279]” was tested. Which “Peptide exchange” value did it give?
Its value is ““+++” (>50 = +++)”.

Which “Peptide exchange” value does the source give for “280 (VPISEEGTPVL; listed as Homo sapiens) [compound 280]” here?
Its value is ““+++” (>50 = +++)”.

With “281 (RPRAPVTPA; listed as Homo sapiens) [compound 281]” as the substance, how does the “Peptide exchange” value read?
The value was ““++++” (>75% = ++++)”.

With “282 (MPQIETRVIL; listed as Homo sapiens) [compound 282]” as the substance, how does the “Peptide exchange” value read?
Its value is ““+++” (>50 = +++)”.

Which “Peptide exchange” value does the source give for “283 (RPHSLSSEL; listed as Homo sapiens) [compound 283]” here?
The value was ““++++” (>75% = ++++)”.

“284 (FPVTSIFHTF; listed as Homo sapiens) [compound 284]” was tested. Which “Peptide exchange” value did it give?
Its value is ““++” (>20% = ++)”.

How did the “Peptide exchange” value turn out when “286 (VPTLRSEL; listed as Homo sapiens) [compound 286]” was run?
The value was ““++++” (>75% = ++++)”.

How did the “Peptide exchange” value turn out when “287 (APREEQQRSL; listed as Homo sapiens) [compound 287]” was run?
Its value is ““+++” (>50 = +++)”.

Which “Peptide exchange” value does the source give for “288 (FPQKFIDLL; listed as Homo sapiens) [compound 288]” here?
The value was ““++” (>20% = ++)”.

With “289 (VPENHSVAL; listed as Homo sapiens) [compound 289]” as the substance, how does the “Peptide exchange” value read?
Its value is ““++++” (>75% = ++++)”.

How did the “Peptide exchange” value turn out when “290 (APYRPPDISL; listed as Homo sapiens) [compound 290]” was run?
The value was ““++++” (>75% = ++++)”.

Which “Peptide exchange” value does the source give for “291 (SPQRLRGLL; listed as Homo sapiens) [compound 291]” here?
Its value is ““++++” (>75% = ++++)”.

Which “Peptide exchange” value does the source give for “295 (KPEGTRIAV; listed as Homo sapiens) [compound 295]” here?
The value was ““++++” (>75% = ++++)”.

“459 (RPMQQARAQL; listed as Homo sapiens) [compound 459]” was tested. Which “Peptide exchange” value did it give?
The value was ““+++” (>50 = +++)”.

How did the “Peptide exchange” value turn out when “464 (YPRPGTPAA; listed as Homo sapiens) [compound 464]” was run?
The value was ““++++” (>75% = ++++)”.

“465 (VPRPIFSQL; listed as Homo sapiens) [compound 465]” was tested. Which “Peptide exchange” value did it give?
The value was ““++++” (>75% = ++++)”.

For “466 (APYKSVTSL; listed as Homo sapiens) [compound 466]”, which “Peptide exchange” value is on record?
Its value is ““++++” (>75% = ++++)”.

“467 (KPFSSFTSM; listed as Homo sapiens) [compound 467]” was tested. Which “Peptide exchange” value did it give?
The value was ““++++” (>75% = ++++)”.

Which “Peptide exchange” value does the source give for “468 (SPMYGQAGL; listed as Homo sapiens) [compound 468]” here?
The value was ““++++” (>75% = ++++)”.

With “469 (YPENGVVQM; listed as Homo sapiens) [compound 469]” as the substance, how does the “Peptide exchange” value read?
The value was ““++” (>20% = ++)”.

Which “Peptide exchange” value does the source give for “470 (SPNSYFRVL; listed as Homo sapiens) [compound 470]” here?
Its value is ““++++” (>75% = ++++)”.

With “471 (KPRPDVTNEL; listed as Homo sapiens) [compound 471]” as the substance, how does the “Peptide exchange” value read?
The value was ““++++” (>75% = ++++)”.

For “472 (NPRATDAQL; listed as Homo sapiens) [compound 472]”, which “Peptide exchange” value is on record?
The value was ““++++” (>75% = ++++)”.

Which “Peptide exchange” value does the source give for “475 (RPHKPGLYL; listed as Homo sapiens) [compound 475]” here?
Its value is ““++++” (>75% = ++++)”.
